Experimental data from patent publication US8487082B2, “Synthetic scFv analogue to the 6313/G2 (anti angiotensin II type 1 receptor) monoclonal antibody variable regions” (Queen Mary & Westfield College, priority 2008, dated 2013).

System: cancer cells in hollow fibers
Assay: In vivo hollow fiber assay (summary statements)
Set-up: species or system nu/nu mice
Procedure: Hollow Fiber procedures followed the method of Hollingshead. (Hollingshead et al Life Sci 57 131-41 (1995)).
Cell-loaded hollow fiber segments were incubated at 37° C. in culture medium overnight before implantation into pure strain 5-6 week old female balb/c nu/nu mice. Fibers were implanted into the animals under anaesthesia (2% Isofluorane). Three 2 cm fibers, each containing one of the cell lines MCF-7, T47D, or MDA-MB-231, were implanted at both subcutaneous (s.c.) and intraperitoneal (i.p.) sites into each animal. For i.p. implants, a small incision was made through the skin and musculature of the ventral abdominal wall. Fibers were placed into the peritoneal cavity and both incisions were closed with metallic suture clips (Harvard Instruments, Edenbridge UK). For s.c. implants, a small incision was made dorsally. The fibers were implanted to the left of the dorsal midline in a cranial direction. The small incision was closed with metallic suture clips. […]
Cell viability was measured using a modified MTT assay. […] An aliquot (190 μl) from each well was transferred to a 96 well plate and absorbance read at 540 nm using a Multiskan Ascent photometric microplate reader (Thermo labsystem). Treated values were calculated as a percentage of the controls.

B1: R6313/G2: murine scFv analogue of the 6313/G2 anti-AT1 receptor monoclonal antibody variable domains, SEQ ID NO:15 (protein)
scFv: YAAQPAMAQVKLQQSGPELEKPGASVKISCKASGYSFTGYNMNWVKQSNGKSLEWIGNIDPYYGGTTYNQKFKGKATLTVDKSSSTAYMQLKSLTSEDSAVYYCAREVDYWGQGTTVTVSSGGGGSGGGGSGGGGSDIELTQSPASLAVSLGQRATISYRASKSVSTSGYSYMHWNQQKPGQPPRLLIYLVSNLESGVPARFSGSGSGTDFTLNIHPVEEEDAATYYCQHIRELTRSEGTKLEIKRAAAGAPVPY
modifications: 12D
In the case of B1, the “in vitro concentration giving an anti-cancer cell effect equivalent to 25 nmol/Kg in vivo” value (comparison of in vivo dose 25 nmol/Kg with in vitro) is reported as 3.3 µmol/L and the “cancer cell growth in hollow fibers” value (intact nu/nu mice bearing cancer cells in hollow fibers) is reported as “significantly inhibited cancer cell growth”.
